Test [1] has as its target T1, Human CD3e (Acro Biosystems CDE-H5223) (human, UniProt P07766 23-126).
T1 construct: Analyte in SPR; also called huCD3e
As to the kind of experiment: SPR (Biacore T200), antibody captured via anti-human Fc, CD3e as analyte, 1:1 model. As for the experimental part:
(§1) In this example, exemplary humanized anti-CD3 antibody molecules BKM0020, BKM0025, BKM0028, BKM0038 (as described herein) were tested for their binding affinity to human or cynomolgus CD3e using surface plasmon resonance (SPR). SPR measurements were performed by using the BIAcore T200. Each construct was immobilized on a CM5 chip via Anti-human Fc antibody to a response of 200 RU. Human CD3e (Acro Biosystems CDE-H5223) was diluted to 500 nM and then diluted two-fold. Each analyte concentration was injected at a flow rate of 20 μl/min over the surface on which each antibody was immobilized. The data was fit using a 1:1 binding model. Affinity to human CD3e was preserved compared to the parental and affinity to cyno CD3e was two to three-fold lower compared to the parental antibody.
(In general: SPR reads the build-up and loss of mass on a sensor chip optically.)

Test [2] addresses T2, cynomolgus CD3e (cynomolgus, UniProt Q95LI5 22-117, limits assumed).
T2 construct: also called cCD3e; cyno CD3e
T2 sequence (looked up): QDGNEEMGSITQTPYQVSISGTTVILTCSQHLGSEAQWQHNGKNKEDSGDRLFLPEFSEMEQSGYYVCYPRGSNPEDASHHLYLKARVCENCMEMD
The test is described as above. How it is done: as §1

Test [3] addresses T3, cynomolgus CD3e (cynomolgus, UniProt Q95LI5 22-117).
T3 chain: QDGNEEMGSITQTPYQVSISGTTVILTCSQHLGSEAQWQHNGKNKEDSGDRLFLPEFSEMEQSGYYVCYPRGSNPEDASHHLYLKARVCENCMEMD
As to the kind of experiment: SPR.

Test [4] deals with T4, human CD3e on Jurkat cells (human, UniProt P07766 23-207).
T4 construct: whole, on cells; also called huCD3e; CD3 expressed on Jurkat cells
In words: flow cytometry (FACS) on Jurkat cells, 3-fold dilutions from 10 ug/ml, anti-human IgG AF647. How it is done:
Binding of the exemplary humanized anti-CD3 antibodies to CD3-expressing Jurkat cells was performed using FACS. Antibodies were tested in a series of 3-fold dilutions starting with 10 ug/ml concentration and detected using anti-human IgG secondary antibodies conjugated to AF647.

Test [5] concerns the target T5, Human CD3e (Acro Biosystems CDE-H5223) (human, UniProt P07766 23-126).
T5 chain: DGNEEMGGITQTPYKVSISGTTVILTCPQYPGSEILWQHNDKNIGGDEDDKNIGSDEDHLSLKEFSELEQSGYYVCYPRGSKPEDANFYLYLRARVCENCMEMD
In words: SPR.

From US20240002543A1 (MARENGO THERAPEUTICS, published 2024) come the findings set out here.

B1: BKM0025 (humanized anti-CD3 antibody molecule) (antibody, V domains shown)
VH: QVQLVQSGAEVKKPGASVKVSCKASGYTFTTYWMHWVRQAPGQGLEWMGNFNPNNGDTNYNEKFKTRVTMTVDKSTSTAYMELRSLRSDDMAVYYCARDDYGRYYFDYWGQGTLVTVSS
VL: EIVMTQSPATLSLSPGERATLSCKSSQSLLNSRTRKNYLAWYQQKPGLAPRLLIYWAFTRESGIPDRFSGSGSGTDFTLTISRLEPEDFAVYYCKQSFILRTFGGGTKVEIK
notes: Captured via anti-human Fc antibody in SPR; constant regions not tied
Regarding B1, the binding result (in test [1]; with cynomolgus CD3e [2]) was “binds” throughout. In the test with cynomolgus CD3e [3], this molecule had an equilibrium dissociation constant (Kd) of 18.3 nM.

B2: BKM0020 (humanized anti-CD3 antibody molecule) (antibody, V domains shown)
VH: QVQLVQSGAEVKKPGASVKVSCKASGYTFTTYWMHWVRQAPGQGLEWMGNFNPNNGDTNYNEKFKTRVTMTVDKSTSTAYMELRSLRSDDMAVYYCARDDYGRYYFDYWGQGTLVTVSS
VL: DIQMTQSPSTLSASVGDRVTITCKSSQSLLNSRTRKNYLAWYQQKPGKAPKLLIYWAFTRESGVPSRFSGSGSGTEFTLTISSLQPDDFATYYCKQSFILRTFGGGTKVEIK
notes: Captured via anti-human Fc antibody in SPR, so it carries a human Fc; constant regions not tied
Take B2: the binding result (in test [1]; with cynomolgus CD3e [2]; in test [4]) was “binds” each time. Besides, the Kd with cynomolgus CD3e [3] amounted to 9.98 nM; in test [5], 6.34 nM.

B3: BKM0038 (humanized anti-CD3 antibody molecule) (antibody, V domains shown)
VH: QVQLVQSGAEVKKPGASVKVSCKASGYTFTTYWMHWVRQAPGKGLEWMGNFNPNNGDTNYNEKFKTRVTMTVDKSTSTAYMELSSLRSEDTAVYYCARDDYGRYYFDYWGQGTLVTVSS
VL: DIQMTQSPSSLSASVGDRVTITCKSSQSLLNSRTRKNYLAWYQQKPGKAPKLLIYWAFTRESGVPSRFSGSGSGTDFTLTISSLQPEDFATYYCKQSFILRTFGGGTKVEIK
notes: as for B1
B3: the binding result (in test [1]; with cynomolgus CD3e [2]) was “binds” in each case. Also, the Kd with cynomolgus CD3e [3] stood at 14.1 nM; in test [5], 6.47 nM.

B4: BKM0028 (humanized anti-CD3 antibody molecule) (antibody, V domains shown)
VH: QVQLVQSGAEVKKPGASVKVSCKASGYTFTTYWMHWVRQAPGKGLEWMGNFNPNNGDTNYNEKFKTRVTMTVDKSTSTAYMELSSLRSEDTAVYYCARDDYGRYYFDYWGQGTLVTVSS
VL: EIVMTQSPATLSLSPGERATLSCKSSQSLLNSRTRKNYLAWYQQKPGLAPRLLIYWAFTRESGIPDRFSGSGSGTDFTLTISRLEPEDFAVYYCKQSFILRTFGGGTKVEIK
notes: as for B1
Regarding B4, the binding result (in test [1]; in the test with cynomolgus CD3e [2]) was “binds” in each case. Moreover, the Kd with cynomolgus CD3e [3] came to 14.1 nM; in test [5], 4.72 nM.

For orientation: Kd means the concentration at which binding is half-saturated.
